Laboratory results published in article PMC10509167, “Identification and characterization of endo-α-, exo-α-, and exo-β-D-arabinofuranosidases degrading lipoarabinomannan and arabinogalactan of mycobacteria” (Nature Communications, 2023).

Experiments:
[1] = target: ExoMA1 (MIAR_33200), GH172 exo-α-D-arabinofuranosidase from Microbacterium arabinogalactanolyticum, recombinant (Microbacterium arabinogalactanolyticum JCM 9171); experiment: SEC; SEC of ExoMA1 in solution (Supplementary Fig. 19a)
[2] = target: ExoMA1 (MIAR_33200), GH172 exo-α-D-arabinofuranosidase from Microbacterium arabinogalactanolyticum, recombinant (Microbacterium arabinogalactanolyticum JCM 9171); experiment: negative-stain transmission electron microscopy; purified ExoMA1 0.1 mg/mL in 10 mM Tris-HCl (pH 7.5), 500 mM NaCl, on carbon-coated copper grids, 2% uranyl acetate, 120 kV
[3] = target: ExoMA1 (MIAR_33200), GH172 exo-α-D-arabinofuranosidase from Microbacterium arabinogalactanolyticum, recombinant (Microbacterium arabinogalactanolyticum JCM 9171); experiment: crystal structure; ExoMA1 apo form, 2.42 Å; dodecamer in the asymmetric unit; sitting-drop vapor diffusion, 20 °C
[4] = target: EndoMA1 D51N catalytic residue mutant (Microbacterium arabinogalactanolyticum JCM 9171); experiment: crystal structure; EndoMA1 D51N co-crystallised with 10 mM A9LT, 1.80 Å; microseeding, 30 °C; four chains (A-D) in the asymmetric unit
[5] = target: EndoMA1 (MIAR_33230), GH183 (DUF4185) endo-D-arabinanase from Microbacterium arabinogalactanolyticum, recombinant wild type (Microbacterium arabinogalactanolyticum JCM 9171); experiment: SEC-SAXS; SEC-SAXS of EndoMA1 at beamline BL-10C of the Photon Factory, same column and buffer as SEC-MALS/RI; profile compared with the dimeric apo crystal structure
[6] = target: EndoMA1 (MIAR_33230), GH183 (DUF4185) endo-D-arabinanase from Microbacterium arabinogalactanolyticum, recombinant wild type (Microbacterium arabinogalactanolyticum JCM 9171); experiment: crystal structure; EndoMA1 wild type, apo form, 1.60 Å; sitting-drop vapor diffusion, 20 °C
[7] = target: EndoMA1 (MIAR_33230), GH183 (DUF4185) endo-D-arabinanase from Microbacterium arabinogalactanolyticum, recombinant wild type (Microbacterium arabinogalactanolyticum JCM 9171); experiment: SEC-MALS; SEC-MALS/RI of EndoMA1, KW403-4F column (Shodex), DAWN HELEOS II; self-association in solution

For “ExoMA1 (MIAR_33200), GH172 exo-α-D-arabinofuranosidase from Microbacterium arabinogalactanolyticum, recombinant (enzyme)”, the stoichiometry N [1] was greater than 7, the stoichiometry N [2] was 12 and the stoichiometry N [3] was 12.
For “EndoMA1 D51N catalytic residue mutant (enzyme)”, the stoichiometry N [4] was 2.
“EndoMA1 (MIAR_33230), GH183 (DUF4185) endo-D-arabinanase from Microbacterium arabinogalactanolyticum, recombinant wild type (enzyme)” gave a stoichiometry N [5] of 2, a stoichiometry N [6] of 2 and a stoichiometry N [7] of 2.
